Experimental data taken from the supplement of paper PMC10126150.
± gives the standard deviation of the averaged measurements.

System: ATP
Assay: switch fluorescence ratio, 500 uM ATP over buffer (Cy3 cluster intensity, sum of 5 cycles each) (fold (ratio)); higher = stronger signal-on switching upon ATP binding; sequences stand for … in TCGTCGGCAGCGTCAGATGTGTATAAGAGACAGTTTTTTTTTTTTTTTTTTTTTTTTT…TC
Details: aptamer strand: ATP DNA aptamer (quencher-CACCTGGGGGAGTATTGCGGAGGAAGG + anchor), 100 nM annealed; ATP concentration: 500 uM
Procedure, shortened: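 Values give the fluorescence ratio for each switch-domain sequence, averaged from per-cluster ratios of summed target-cycle to summed buffer-cycle Cy3 intensity. The Cy3-labelled switching-strand clusters sat on a modified Illumina MiSeq flow-cell, were annealed to 100 nM quencher-labelled ATP aptamer, and were imaged in selection buffer, then after 15 min with 500 uM ATP at 22 °C. Five cycles ran with NaOH stripping and re-annealing between them, and clusters outside 100-1000 RFU were excluded.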
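Further: ATP exposure 15 min at 22 °C before imaging.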

Point of comparison: CCGGGGGTTA, switch fluorescence ratio 1.14 ± 0.23. Against it:
- CCCGAAGTCT — within error, 1.05 ± 0.012
- CCCGAGCCTC — within error, 1.36 ± 0.1
- CCCGAGTTAT — within error, 1.067 ± 0.01
- CCCGATGCGC — within error, 1.42 ± 0.51
- CCCGGAAGTG — within error, 1.24 ± 0.018
- CCCGGCGAT — within error, 1.85 ± 1.2
- CCCGGGAAAA — within error, 0.943 ± 0.03
- CCCGGGGGGA — within error, 1.55 ± 0.7
- CCCGGGGTGT — higher, 3.55 ± 0.15
- CCCGTAGTTA — within error, 1.19 ± 0.042
- CCCGTGGGGA — within error, 1.2 ± 0.15
- CCCGTTGGTT — within error, 1.27 ± 0.34
- CCCGTTTGGG — within error, 0.981 ± 0.023
- CCCTAACCCG — within error, 1.18 ± 0.055
- CCCTAGGTTT — within error, 1.73 ± 0.79
- CCCTCACTTA — within error, 1.08 ± 0.049
- CCCTGGGGGT — within error, 1.15 ± 0.067
- CCCTGGTGGG — within error, 1.04 ± 0.11
- CCCTTAGTGC — the same, 1.14 ± 0.022
- CCCTTAGTGT — within error, 1.04 ± 0.031
- CCCTTTATTT — within error, 1.29 ± 0.36
- CCCTTTTTAT — within error, 0.986 ± 0.014
- CCGAAAATGA — within error, 1.35 ± 0.49
- CCGAAGACAG — higher, 3.11 ± 0.21
- CCGAAGGGGT — within error, 1.18 ± 0.16
- CCGAAGGGTT — within error, 1.02 ± 0.077
- CCGAGAGGGT — within error, 1.06 ± 0.069
- CCGAGGGTG — higher, 1.81 ± 0.098
- CCGAGGTATC — within error, 3.23 ± 2.1
- CCGAGTGGGC — within error, 1.09 ± 0.012
- CCGATACGGG — within error, 1.072 ± 0.0082
- CCGATGATTT — within error, 1.5 ± 0.56
- CCGATTTGGC — the same, 1.14 ± 0.044
- CCGCATGCTT — within error, 2.76 ± 2
- CCGCCGGGGG — within error, 1.09 ± 0.041
- CCGCGAGGGT — within error, 1.57 ± 0.29
- CCGCGGGATT — within error, 1.28 ± 0.32
- CCGCGGGGAG — within error, 1.1 ± 0.041
- CCGCTAGCCT — higher, 2.94 ± 0.53
- CCGCTTAGAT — higher, 2.34 ± 0.23
- CCGGAAATGA — within error, 1.02 ± 0.054
- CCGGACTCTT — within error, 1.11 ± 0.015
- CCGGAGGGGA — within error, 1.27 ± 0.18
- CCGGATAGTG — within error, 1.03 ± 0.026
- CCGGCAGGAT — within error, 0.988 ± 0.011
- CCGGGACAGC — within error, 1.17 ± 0.077
- CCGGGAGCGC — within error, 1.98 ± 0.83
- CCGGGGAATC — higher, 2.19 ± 0.57
- CCGGGGACCC — within error, 1.13 ± 0.08
- CCGGGGATCA — within error, 1.01 ± 0.024
- CCGGGGGACG — within error, 1.06 ± 0.14
- CCGGGGGGAT — within error, 1.55 ± 0.66
- CCGGGGGGTA — within error, 1.37 ± 0.017
- CCGGGGGT — within error, 1.036 ± 0.0046
- CCGGGGGTCC — within error, 1.02 ± 0.019
- CCGGGGGTCG — within error, 1.06 ± 0.074
- CCGGGGTGGC — within error, 1.16 ± 0.11
- CCGGGGTTGA — within error, 0.993 ± 0.074
- CCGGGGTTTG — within error, 0.998 ± 0.019
- CCGGGTAAGG — within error, 0.9989 ± 0.0045
- CCGGGTAGTT — within error, 1.02 ± 0.074
- CCGGGTGACA — within error, 1.25 ± 0.048
- CCGGGTTACT — higher, 1.91 ± 0.044
- CCGGGTTGCA — within error, 1.03 ± 0.04
- CCGGGTTTAG — within error, 1.03 ± 0.023
- CCGGGTTTGT — within error, 1.05 ± 0.03
- CCGGTACGTC — within error, 1.12 ± 0.044
- CCGGTACTAT — within error, 1.167 ± 0.0092
- CCGGTATAAT — the same, 1.144 ± 0.0026
- CCGGTATATC — higher, 2.517 ± 0.025
- CCGGTTAAAC — higher, 1.64 ± 0.06
- CCGGTTAGAG — within error, 1.05 ± 0.014
- CCGGTTGGTG — within error, 1 ± 0.036
- CCGGTTTTCG — within error, 1.09 ± 0.036
- CCGGTTTTGC — within error, 1.21 ± 0.14
- CCGTAGAGGG — within error, 1.38 ± 0.043
- CCGTAGGAAT — within error, 1.28 ± 0.068
- CCGTAGGTTT — within error, 1.06 ± 0.037
- CCGTCAAGGA — within error, 1.94 ± 1.2
- CCGTCGGCGC — within error, 1.08 ± 0.019
- CCGTCGTACG — within error, 1.06 ± 0.11
- CCGTCTGGCG — within error, 0.9959 ± 0.0067
- CCGTGACAAT — higher, 4.12 ± 0.34
- CCGTGAGGTA — within error, 1 ± 0.026
- CCGTGCGTAT — within error, 1.3 ± 0.062
- CCGTGGGGGG — within error, 1.02 ± 0.083
- CCGTTCTGGG — within error, 0.9786 ± 0.0026
- CCGTTGAATT — within error, 1.008 ± 0.0056
- CCGTTGACCG — within error, 1.07 ± 0.057
- CCGTTGGACT — within error, 1.24 ± 0.067
- CCGTTGGGCT — within error, 1.01 ± 0.025
- CCGTTGGGGC — within error, 1.12 ± 0.059
- CCGTTGTATT — within error, 1.12 ± 0.035
- CCGTTTATGA — within error, 1.1 ± 0.047
- CCGTTTGAAA — within error, 1.01 ± 0.006
- CCGTTTTGAA — within error, 0.981 ± 0.057
- CCGTTTTTGC — the same, 1.14 ± 0.09
- CCTAAAAGGG — within error, 1 ± 0.032
- CCTAACCGTC — within error, 1.156 ± 0.0056
